From doi:10.1101/2025.08.27.672337, “Cyclin-dependent kinase-like 5 (CDKL5) binds to talin and is anchored at the postsynaptic density via direct interaction with PDZ domains” (bioRxiv, 2025) come the findings set out here.

What all share (conditions): both partners purified
In assay [1] the target is T1, PSD-95 PDZ2 domain (human, UniProt P78352 155-249).
T1 construct: PSD-95 (postsynaptic density protein 95) PDZ2, human, UniProt P78352, residues 155-249; codon optimised synthetic gene; Expressed from pET151; His-tag removed with AcTEV protease; 15N-labelled for NMR; also called PDZ2 of PSD-95
T1 sequence (P78352 155-249): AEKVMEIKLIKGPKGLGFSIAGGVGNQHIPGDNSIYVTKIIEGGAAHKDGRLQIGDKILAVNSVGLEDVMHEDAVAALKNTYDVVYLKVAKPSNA
The assay can be described thus: NMR titration; 15N-HSQC of 15N-labelled protein at 150 µM with peptide added (1:0.5 to 1:5 molar ratios); 12 mM NaH2PO4, 6 mM Na2HPO4, pH 6.5, 50 mM NaCl, 2 mM DTT, 5% D2O, 298K.

In assay [2] the target is T2, SHANK2 PDZ domain (mouse, UniProt Q80Z38 247-340).
T2 construct: SHANK2 PDZ domain, mouse, UniProt Q80Z38, residues 247-340; Expressed from pET151; His-tag removed with AcTEV protease; 15N-labelled for NMR
T2 sequence (looked up): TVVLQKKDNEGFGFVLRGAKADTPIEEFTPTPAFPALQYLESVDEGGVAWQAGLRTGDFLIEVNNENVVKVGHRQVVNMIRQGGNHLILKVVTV
The description is as above.

Assay [3] has as its target T3, PSD-95 PDZ3 domain (human, UniProt P78352 302-402).
T3 construct: PSD-95 (postsynaptic density protein 95) PDZ3, human, UniProt P78352, residues 302-402; codon optimised synthetic gene; Expressed from pET151; His-tag removed with AcTEV protease; 15N-labelled for NMR; also called PDZ3 of PSD-95
Described as above.

Assay [4] concerns the target T4, SHANK1 PDZ domain (mouse, UniProt D3YZU1 654-762).
T4 construct: SHANK1 PDZ domain, mouse, UniProt D3YZU1, residues 654-762; Expressed from pET151; His-tag removed with AcTEV protease; 15N-labelled for NMR
T4 sequence (looked up): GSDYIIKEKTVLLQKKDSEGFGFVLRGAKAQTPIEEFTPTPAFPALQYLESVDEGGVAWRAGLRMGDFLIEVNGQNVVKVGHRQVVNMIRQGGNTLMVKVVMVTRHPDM
The description is as above.

In assay [5] the target is T5, talin1 R7R8 (mouse, UniProt P26039 1357-1659).
T5 construct: talin1 rod domains R7R8, mouse, UniProt P26039, residues 1357-1659; Expressed from pET151; His-tag removed with AcTEV protease; 15N-labelled for NMR; also called talin R7R8
T5 sequence (P26039 1357-1659): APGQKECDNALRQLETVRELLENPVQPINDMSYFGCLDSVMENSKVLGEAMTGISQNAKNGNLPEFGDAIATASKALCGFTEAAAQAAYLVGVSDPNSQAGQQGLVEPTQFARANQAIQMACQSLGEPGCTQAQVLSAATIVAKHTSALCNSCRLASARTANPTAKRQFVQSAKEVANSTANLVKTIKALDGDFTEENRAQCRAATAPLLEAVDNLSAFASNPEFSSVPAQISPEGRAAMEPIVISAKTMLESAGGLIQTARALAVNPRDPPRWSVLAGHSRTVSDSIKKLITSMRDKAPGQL
The assay can be described thus: fluorescence polarisation; dye-labelled peptide against a twofold serial dilution of the protein in PBS (10 mM Na2HPO4, 1.8 mM KH2PO4, pH 7.4, 137 mM NaCl, 2.7 mM KCl), 25°C; one-site total binding fit; triplicate. (In general: In fluorescence polarisation assays a small probe gives low polarisation when free and higher when bound to something large.)

Assay [6] concerns the target T5, talin1 R7R8. As to the kind of experiment: NMR titration; 15N-HSQC of 15N-labelled protein at 150 µM with peptide added (1:0.5 to 1:5 molar ratios); 12 mM NaH2PO4, 6 mM Na2HPO4, pH 6.5, 50 mM NaCl, 2 mM DTT, 5% D2O, 298K.
Another assay addresses T6, talin1 R8 (mouse, UniProt P26039 1461-1580).
T6 construct: talin1 rod domain R8, mouse, UniProt P26039, residues 1461-1580; Expressed from pET151; His-tag removed with AcTEV protease; 15N-labelled for NMR; also called talin R8; R8 rod domain of talin
The description is as above.

Assay [7] has as its target T1, PSD-95 PDZ2 domain. The assay can be described thus: fluorescence polarisation; dye-labelled peptide against a twofold serial dilution of the protein in PBS (10 mM Na2HPO4, 1.8 mM KH2PO4, pH 7.4, 137 mM NaCl, 2.7 mM KCl), 25°C; one-site total binding fit; triplicate.
The target of assay [8] is T2, SHANK2 PDZ domain. The description is as above.
In assay [9] the target is T3, PSD-95 PDZ3 domain. The description is as above.
Assay [10] addresses T4, SHANK1 PDZ domain. The description is as above.
The target in the next assay is T7, SHANK3 PDZ domain (mouse, UniProt Q4ACU6 570-664).
T7 construct: SHANK3 PDZ domain, mouse, UniProt Q4ACU6, residues 570-664; Expressed from pET151; His-tag removed with AcTEV protease
T7 sequence (looked up): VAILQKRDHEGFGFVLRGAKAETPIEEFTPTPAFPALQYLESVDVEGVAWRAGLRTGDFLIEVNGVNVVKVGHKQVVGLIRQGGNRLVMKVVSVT
The description is as above.

Where “and” joins values, the source holds several entries; their conditions need not be identical. Equal entries are not always repeated. Where no end group is shown, it is not given here. maleimide‑fluorescein = Maleimide-fluorescein dye, coupled to a cysteine thiol

T3 sequence (P78352 302-402): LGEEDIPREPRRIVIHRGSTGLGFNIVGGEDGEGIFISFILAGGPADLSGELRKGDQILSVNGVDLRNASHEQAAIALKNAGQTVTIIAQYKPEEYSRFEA
T6 sequence (P26039 1461-1580): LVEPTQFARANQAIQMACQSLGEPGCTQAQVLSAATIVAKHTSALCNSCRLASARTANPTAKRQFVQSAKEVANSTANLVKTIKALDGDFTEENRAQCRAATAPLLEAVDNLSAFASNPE

B1: CDKL5-1^941-960 peptide, unlabelled (peptide)
peptide: CYNRTNRSRMPNLNDLKETAL
notes: single non-native N-terminal cysteine with which the synthetic peptides were designed; ends in -ETAL (957-960); Used unlabelled in NMR; also called CDKL5-1 C-terminal tail peptide; CDKL5-1 peptide; source: synthetic peptide (GLBiochem, Shanghai)
Regarding B1, the binding result with PSD-95 PDZ2 domain [1], with SHANK2 PDZ domain [2], with PSD-95 PDZ3 domain [3] and with SHANK1 PDZ domain [4] was “binds” in each case.

B2: CDKL5^213-234 peptide, dye-labelled for FP (peptide)
peptide: C(maleimide‑fluorescein)GESEIDQLFTIQKVLGPLPSEQ
notes: single non-native N-terminal cysteine for coupling the dye; source: synthetic peptide (GLBiochem, Shanghai)
B2: the “fold weaker affinity than CDK1^206-223 with talin1 R7R8” value in the assay with talin1 R7R8 [5] was determined as 2.5 fold.

B3: CDKL5^213-234 peptide (NMR) (peptide)
peptide: CGESEIDQLFTIQKVLGPLPSEQ
notes: single non-native N-terminal cysteine with which the synthetic peptides were designed; source: synthetic peptide (GLBiochem, Shanghai)
Take B3: the binding result with talin1 R7R8 [6] and in the assay with talin1 R8 was “binds” each time.

B4: CDKL5-1^941-960 peptide, fluorescein-labelled (peptide)
peptide: C(maleimide‑fluorescein)YNRTNRSRMPNLNDLKETAL
notes: single non-native N-terminal cysteine for coupling the dye; ends in -ETAL (957-960); also called CDKL5-1 C-terminal tail peptide; CDKL5 isoform 1 C-terminus; source: synthetic peptide (GLBiochem, Shanghai)
Turning to B4, the Kd was 31.3 µM with PSD-95 PDZ2 domain [7]; 5.2 µM with SHANK2 PDZ domain [8]; 40.7 µM in the assay with PSD-95 PDZ3 domain [9]; 8.5 µM and 7.6 µM with SHANK1 PDZ domain [10]; 8.6 µM with SHANK3 PDZ domain.

As a reminder, the Kd is the equilibrium constant for the complex coming apart. A lower Kd goes with a tighter complex.
